How the values were obtained:
[1] = molecular target: T1, ubiquitin (whether His-tagged or not is not told for the experiment) (UniProt P0CG48 1-76); assay: NMR titration; unlabelled SH3 domain titrated into 0.25 mM 15N-ubiquitin; 1H-15N HSQC chemical shift perturbation; 25 °C; 50 mM NaPi, 1 mM DTT, pH 6.0; conditions: both partners purified
T1 construct: ubiquitin, the 76-residue cut product (residues up to Gly76 are named); The methods list His-tagged and non His-tagged ubiquitin; It may carry the C-terminal His tag of m6; 15N- or 13C,15N-labelled in some NMR experiments; source: purchased from Spectra Isotopes or obtained as described in [12]; [18]

[2] = molecular target: T1, ubiquitin (whether His-tagged or not is …); assay: other fluorescence titration + ITC; 25 °C; ubiquitin stock titrated into the SH3 domain; ITC in 20 mM cacodylate, pH 6.0, about 50 µM SH3 in the cell and about 800 µM ubiquitin; intrinsic tryptophan fluorescence (excitation 298 nm), apparent affinities; model of a single set of identical sites; conditions: both partners purified

Binder	binding result [1]	Kd [2]
CIN85 F322Y SH3-C (domain or fragment, UniProt Q96B97 270-328, looked up, CIN85 third SH3 domain (SH3-C) with F322Y; limits as the WT construct CIN85-SH3C(270-328)His6; Site-directed mutagenesis (QuikChange) of the WT construct m4; also called CIN85 SH3-C F322Y mutant; CIN85 F322Y SH3-C mutant; source: E. coli BL21/DE3, purified like the WT CIN85 SH3-C) DYCKVIFPYEAQNDDELTIKEGDIVTLINKDCIDVGWWEGELNGRRGVFPDNYVKLLPP	binds	–
CD2AP F324Y SH3-C (domain or fragment, CD2AP third SH3 domain (SH3-C) with F324Y; Site-directed mutagenesis (QuikChange) of the WT construct m3; also called SH3-C F324Y mutant; F324Y CD2AP SH3-C; source: E. coli BL21/DE3, purified like the WT CD2AP SH3-C) AKEYCRTLFPYTGTNEDELTFREGEIIHLISKETGEAGWWKGELNGKEGVFPDNYAVQIS	–	24 ± 3 µM
CD2AP SH3-C T283A mutant (domain or fragment, CD2AP third SH3 domain (SH3-C) with T283A (RT loop); Mutant of m3; source: purchased from Topgene and expressed as the WT domains; purified) AKEYCRTLFPYTGANEDELTFREGEIIHLISKETGEAGWWKGELNGKEGVFPDNFAVQIS	binds	–
